Results as given in US10919953 (dated 2021).
Like-named read-outs stand apart in the source and are kept apart here.

What was measured:
Assay in all cases: SPR
FcgRIa [1] = target: T1, FcgRIa (human, UniProt P12314)
T1 chain: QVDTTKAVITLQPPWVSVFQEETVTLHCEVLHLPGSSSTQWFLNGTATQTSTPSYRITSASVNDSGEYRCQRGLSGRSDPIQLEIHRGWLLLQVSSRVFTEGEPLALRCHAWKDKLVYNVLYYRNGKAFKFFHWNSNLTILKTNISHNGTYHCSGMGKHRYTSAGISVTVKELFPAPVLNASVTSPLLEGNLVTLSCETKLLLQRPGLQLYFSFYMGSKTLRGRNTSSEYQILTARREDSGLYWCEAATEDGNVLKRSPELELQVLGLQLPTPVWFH

FcgRIIb = target: T2, FcgRIIb (human, UniProt P31994)
T2 chain: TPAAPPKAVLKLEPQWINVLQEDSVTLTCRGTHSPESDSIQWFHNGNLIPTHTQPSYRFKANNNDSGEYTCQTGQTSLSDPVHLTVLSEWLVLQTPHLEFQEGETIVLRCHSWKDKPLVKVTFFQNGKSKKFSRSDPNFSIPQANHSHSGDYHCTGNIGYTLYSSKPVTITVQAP

FcgRIIaR = target: T3, FcgRIIaR (human, UniProt P12318)
T3 chain: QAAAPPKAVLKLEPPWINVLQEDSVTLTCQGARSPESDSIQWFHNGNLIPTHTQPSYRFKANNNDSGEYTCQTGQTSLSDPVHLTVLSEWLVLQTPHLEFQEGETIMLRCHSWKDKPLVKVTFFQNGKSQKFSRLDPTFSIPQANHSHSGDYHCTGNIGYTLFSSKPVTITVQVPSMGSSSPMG

FcgRIa [2] = target: T1, FcgRIa

Binder | Kd (FcgRIa [1]) [nM] | Kd (FcgRIIb) [nM] | Kd (FcgRIIaR) [nM] | Kd (FcgRIa [2]) [nM]
IL6R-BP220/IL6R-L (antibody) chain 1: QVQLQESGPGLVKPSETLSLTCAVSGHSISHDHAWSWVRQPPGEGLEWIGFISYSGITNYNPSLQGRVTISRDNSKNTLYLQMNSLRAEDTAVYYCARSLARTTAMDYWGEGTLVTVSSASTKGPSVFPLAPSSKSTSGGTAALGCLVKDYFPEPVTVSWNSGALTSGVHTFPAVLQSSGLYSLSSVVTVPSSSLGTQTYICNVNHKPSNTKVDKKVEPKSCDKTHTCPPCPAPDLLGDDSVFLFPPKPKDTLMISRTPEVTCVVVDVSDEDGEVKFNWYVDGVEVHNAKTKPREEQDNSTYRVVSVLTVLHQDWLNGKEYKCKVSNKALPKPIEKTISKAKGQPREPQVYTLPPSRDELTKNQVSLTCLVKGFYPSDIAVEWESNGQPENNYKTTPPVLDSDGSFFLYSKLTVDKSRWQQGNVFSCSVMHEALHNHYTQESLSLSP chain 2: not shown | 20 | – | – | –
IL6R-BP404/IL6R-L (antibody) chain 1: QVQLQESGPGLVKPSETLSLTCAVSGHSISHDHAWSWVRQPPGEGLEWIGFISYSGITNYNPSLQGRVTISRDNSKNTLYLQMNSLRAEDTAVYYCARSLARTTAMDYWGEGTLVTVSSASTKGPSVFPLAPSSKSTSGGTAALGCLVKDYFPEPVTVSWNSGALTSGVHTFPAVLQSSGLYSLSSVVTVPSSSLGTQTYICNVNHKPSNTKVDKKVEPKSCDKTHTCPPCPAPDYLGDDSVFLFPPKPKDTLMISRTPEVTCVVVDVSEEDGEVKFNWYVDGVEVHNAKTKPREEQDNSTYRVVSVLTVLHQDWLNGKEYKCKVSNKALPRPIEKTISKAKGQPREPQVYTLPPSRDELTKNQVSLTCLVKGFYPSDIAVEWESNGQPENNYKTTPPVLDSDGSFFLYSKLTVDKSRWQQGNVFSCSVMHEALHNHYTQESLSLSP chain 2: not shown | – | 11 | 360 | 10
IL6R-AP029/IL6R-BP410/IL6R-L (antibody) chain 1: QVQLQESGPGLVKPSETLSLTCAVSGHSISHDHAWSWVRQPPGEGLEWIGFISYSGITNYNPSLQGRVTISRDNSKNTLYLQMNSLRAEDTAVYYCARSLARTTAMDYWGEGTLVTVSSASTKGPSVFPLAPSSKSTSGGTAALGCLVKDYFPEPVTVSWNSGALTSGVHTFPAVLQSSGLYSLSSVVTVPSSSLGTQTYICNVNHKPSNTKVDKKVEPKSCDKTHTCPPCPAPDLLGDDSVFLFPPKPKDTLMISRTPEVTCVVVDVSEEDGEVKFNWYVDGVEVHNAKTKPREEQDNSTYRVVSVLTVLHQDWLNGKEYKCKVSNKALPRPIEKTISKAKGQPREPQVYTLPPSRKELTKNQVSLTCLVKGFYPSDIAVEWESNGQPENNYKTTPPVLDSDGSFFLYSKLTVDKSRWQQGNVFSCSVMHEALHNRYTQKSLSLSP chain 2: QVQLQESGPGLVKPSETLSLTCAVSGHSISHDHAWSWVRQPPGEGLEWIGFISYSGITNYNPSLQGRVTISRDNSKNTLYLQMNSLRAEDTAVYYCARSLARTTAMDYWGEGTLVTVSSASTKGPSVFPLAPSSKSTSGGTAALGCLVKDYFPEPVTVSWNSGALTSGVHTFPAVLQSSGLYSLSSVVTVPSSSLGTQTYICNVNHKPSNTKVDKKVEPKSCDKTHTCPPCPAPDLTGDDSVFLFPPKPKDTLMISRTPEVTCVVVDVSEEDGEVKFNWYVDGVEVHNAKTKPREEQDNSTYRVVSVLTVLHQDWLNGKEYKCKVSNKALPRPIEKTISKAKGQPREPQVYTLPPSRDELTKNQVSLTCLVKGFYPSDIAVEWESNGQPENNYKTTPPVLDSDGSFFLYSKLTVDKSRWQQGNVFSCSVMHEALHNHYTQESLSLSP chain 3: not shown | – | 22 | 660 | 17
IL6R-AP029/IL6R-BP409/IL6R-L (antibody) chain 1: QVQLQESGPGLVKPSETLSLTCAVSGHSISHDHAWSWVRQPPGEGLEWIGFISYSGITNYNPSLQGRVTISRDNSKNTLYLQMNSLRAEDTAVYYCARSLARTTAMDYWGEGTLVTVSSASTKGPSVFPLAPSSKSTSGGTAALGCLVKDYFPEPVTVSWNSGALTSGVHTFPAVLQSSGLYSLSSVVTVPSSSLGTQTYICNVNHKPSNTKVDKKVEPKSCDKTHTCPPCPAPDLLGDDSVFLFPPKPKDTLMISRTPEVTCVVVDVSEEDGEVKFNWYVDGVEVHNAKTKPREEQDNSTYRVVSVLTVLHQDWLNGKEYKCKVSNKALPRPIEKTISKAKGQPREPQVYTLPPSRKELTKNQVSLTCLVKGFYPSDIAVEWESNGQPENNYKTTPPVLDSDGSFFLYSKLTVDKSRWQQGNVFSCSVMHEALHNRYTQKSLSLSP chain 2: QVQLQESGPGLVKPSETLSLTCAVSGHSISHDHAWSWVRQPPGEGLEWIGFISYSGITNYNPSLQGRVTISRDNSKNTLYLQMNSLRAEDTAVYYCARSLARTTAMDYWGEGTLVTVSSASTKGPSVFPLAPSSKSTSGGTAALGCLVKDYFPEPVTVSWNSGALTSGVHTFPAVLQSSGLYSLSSVVTVPSSSLGTQTYICNVNHKPSNTKVDKKVEPKSCDKTHTCPPCPAPDLEGDDSVFLFPPKPKDTLMISRTPEVTCVVVDVSEEDGEVKFNWYVDGVEVHNAKTKPREEQDNSTYRVVSVLTVLHQDWLNGKEYKCKVSNKALPRPIEKTISKAKGQPREPQVYTLPPSRDELTKNQVSLTCLVKGFYPSDIAVEWESNGQPENNYKTTPPVLDSDGSFFLYSKLTVDKSRWQQGNVFSCSVMHEALHNHYTQESLSLSP chain 3: not shown | – | 15 | 630 | 19
IL6R-AP029/IL6R-BP407/IL6R-L (antibody) chain 1: QVQLQESGPGLVKPSETLSLTCAVSGHSISHDHAWSWVRQPPGEGLEWIGFISYSGITNYNPSLQGRVTISRDNSKNTLYLQMNSLRAEDTAVYYCARSLARTTAMDYWGEGTLVTVSSASTKGPSVFPLAPSSKSTSGGTAALGCLVKDYFPEPVTVSWNSGALTSGVHTFPAVLQSSGLYSLSSVVTVPSSSLGTQTYICNVNHKPSNTKVDKKVEPKSCDKTHTCPPCPAPDLLGDDSVFLFPPKPKDTLMISRTPEVTCVVVDVSEEDGEVKFNWYVDGVEVHNAKTKPREEQDNSTYRVVSVLTVLHQDWLNGKEYKCKVSNKALPRPIEKTISKAKGQPREPQVYTLPPSRKELTKNQVSLTCLVKGFYPSDIAVEWESNGQPENNYKTTPPVLDSDGSFFLYSKLTVDKSRWQQGNVFSCSVMHEALHNRYTQKSLSLSP chain 2: QVQLQESGPGLVKPSETLSLTCAVSGHSISHDHAWSWVRQPPGEGLEWIGFISYSGITNYNPSLQGRVTISRDNSKNTLYLQMNSLRAEDTAVYYCARSLARTTAMDYWGEGTLVTVSSASTKGPSVFPLAPSSKSTSGGTAALGCLVKDYFPEPVTVSWNSGALTSGVHTFPAVLQSSGLYSLSSVVTVPSSSLGTQTYICNVNHKPSNTKVDKKVEPKSCDKTHTCPPCPAPDLDGDDSVFLFPPKPKDTLMISRTPEVTCVVVDVSEEDGEVKFNWYVDGVEVHNAKTKPREEQDNSTYRVVSVLTVLHQDWLNGKEYKCKVSNKALPRPIEKTISKAKGQPREPQVYTLPPSRDELTKNQVSLTCLVKGFYPSDIAVEWESNGQPENNYKTTPPVLDSDGSFFLYSKLTVDKSRWQQGNVFSCSVMHEALHNHYTQESLSLSP chain 3: not shown | – | 19 | 630 | 13
IL6R-BP225/IL6R-L (antibody) chain 1: QVQLQESGPGLVKPSETLSLTCAVSGHSISHDHAWSWVRQPPGEGLEWIGFISYSGITNYNPSLQGRVTISRDNSKNTLYLQMNSLRAEDTAVYYCARSLARTTAMDYWGEGTLVTVSSASTKGPSVFPLAPSSKSTSGGTAALGCLVKDYFPEPVTVSWNSGALTSGVHTFPAVLQSSGLYSLSSVVTVPSSSLGTQTYICNVNHKPSNTKVDKKVEPKSCDKTHTCPPCPAPEYLGDDSVFLFPPKPKDTLMISRTPEVTCVVVDVSHEDPEVKFNWYVDGVEVHNAKTKPREEQYNSTYRVVSVLTVLHQDWLNGKEYKCKVSNDALPRPIEKTISKAKGQPREPQVYTLPPSRDELTKNQVSLTCLVKGFYPSDIAVEWESNGQPENNYKTTPPVLDSDGSFFLYSKLTVDKSRWQQGNVFSCSVMHEALHNHYTQESLSLSP chain 2: not shown | 65 | – | – | –
IL6R-BP249/IL6R-L (antibody) chain 1: QVQLQESGPGLVKPSETLSLTCAVSGHSISHDHAWSWVRQPPGEGLEWIGFISYSGITNYNPSLQGRVTISRDNSKNTLYLQMNSLRAEDTAVYYCARSLARTTAMDYWGEGTLVTVSSASTKGPSVFPLAPSSKSTSGGTAALGCLVKDYFPEPVTVSWNSGALTSGVHTFPAVLQSSGLYSLSSVVTVPSSSLGTQTYICNVNHKPSNTKVDKKVEPKSCDKTHTCPPCPAPDYLGDDSVFLFPPKPKDTLMISRTPEVTCVVVDVSDEDGEVKFNWYVDGVEVHNAKTKPREEQDNSTYRVVSVLTVLHQDWLNGKEYKCKVSNKALPRPIEKTISKAKGQPREPQVYTLPPSRDELTKNQVSLTCLVKGFYPSDIAVEWESNGQPENNYKTTPPVLDSDGSFFLYSKLTVDKSRWQQGNVFSCSVMHEALHNHYTQESLSLSP chain 2: not shown | 7 | – | – | –
IL6R-BP233/IL6R-L (antibody) chain 1: QVQLQESGPGLVKPSETLSLTCAVSGHSISHDHAWSWVRQPPGEGLEWIGFISYSGITNYNPSLQGRVTISRDNSKNTLYLQMNSLRAEDTAVYYCARSLARTTAMDYWGEGTLVTVSSASTKGPSVFPLAPSSKSTSGGTAALGCLVKDYFPEPVTVSWNSGALTSGVHTFPAVLQSSGLYSLSSVVTVPSSSLGTQTYICNVNHKPSNTKVDKKVEPKSCDKTHTCPPCPAPEYLGDDSVFLFPPKPKDTLMISRTPEVTCVVVDVSHEDGEVKFNWYVDGVEVHNAKTKPREEQYNSTYRVVSVLTVLHQDWLNGKEYKCKVSNKALPKPIEKTISKAKGQPREPQVYTLPPSRDELTKNQVSLTCLVKGFYPSDIAVEWESNGQPENNYKTTPPVLDSDGSFFLYSKLTVDKSRWQQGNVFSCSVMHEALHNHYTQESLSLSP chain 2: not shown | 70 | – | – | –
